Reference: the DeepSol protein solubility set

Experiment: soluble on expression in E. coli; label from the status in PepcDB or PDB records

Sequence	soluble on expression in E. coli
EDFAKSIQDFIENGKTLEDFRKDFDKIVAKHGWQYNGGRNWRSRIIYETNLRSSYQAGRYAQLQELKETMPYWEYVHNDAVTYPRVEHMHWDGLILRHDDPWWKTHFPINAWGCQCTVI	not soluble
MNYKITTLVENCVYGRKLQAEHGLSLYIETPENRLLFDTGASDLFIRNARLLNIDLQKVDYLVLSHGHSDHTGGLRHFLELNAEATVVCKREVFFSKFKDERENGMKYTRSLDLSRFRFIDELTELVPGVFLFPSVDIIDPKDTHFERFWIQKEDGSRVPDTFPDELAMVLVEPEGLSILSACSHRGITNILRTVRTAFPELPCNLLLGGFHIHNAEESKYQVIADYLHEYLPQKIGVCHCTGVDKYAFFYKDFGDRIFYNHTGKLIQTDSLL	not soluble
MGPIKTIKKKKRAEKKVDRNVLLAATAAATSASAAAALNNNDDDDDSSSQSLDWWDGFSRRIYGGSTDPKTFESVFKISRKTFDYICSLVKADFTAKPANFSDSNGNPLSLNDRVAVALRRLGSGESLSVIGETFGMNQSTVSQITWRFVESMEERAIHHLSWPSKLDEIKSKFEKISGLPNCCGAIDITHIVMNLPAVEPSNKVWLDGEKNFSMTLQAVVDPDMRFLDVIAGWPGSLNDDVVLKNSGFYKLVEKGKRLNGEKLPLSERTELREYIVGDSGFPLLPWLLTPYQGKPTSLPQTEFNKRHSEATKAAQMALSKLKDRWRIINGVMWMPDRNRLPRIIFVCCLLHNIIIDMEDQTLDDQPLSQQHDMNYRQRSCKLADEASSVLRDELSDQLCGKNSSA	soluble
MSIKPIDFQMMIPKTAEISKIQNDQQQKSVVVNEQQTNITRQKFEENVNTVHARENAEKVRIDSEQKKKKEERGRKKNPNRAKYGTKGEKEPEEQTSVIDIRL	not soluble
MGSDKIHHHHHHMADLKKQIASGKIAPVYFFQGPESWLKEEIETQLKAAIFPSENEAALNTLVLYGPDLTLGQIVSAASEYPMFTEKKLVVVRQFDKLKKVTDKTESQRQEKSLLSYLSDPPSFTVLVLDADEIEKTELEKAPYKHLKAFRHDFGAIKNAEIFAAERAREAGWEFEPEALKTFSGYIEPSSRLICQEIEKLTLYASNKRPERRITLDDVCDCVGISRKYNVFELEKALVSKNLRQCSGIALMIMEQEGQKEGLMNIVRYLTTFFLRIWKLQTPGAQQLSLQETAAMLGMYGRQEYFAKNFIGYARQFSAAETENAILALRDADAALKGIIPSPDDRFTLLKLMQQLFN	not soluble
DIVMTQSHKFMSTSVGDRVSITCKASQDVSTAVAWYQQKPGQSPKLLISWASTRHTGVPDRFTGSGSGTDYTLTISSVQAEDLALYYCQQHYTTPLTFGAGTKLELKRADAAPTVSIFPPSSEQLTSGGASVVCFLNNFYPKDINVKWKIDGSERQNGVLNSWTDQDSKDSTYSMSSTLTLTKDEYERHNSYTCEATHKTSTSPIVKSFNRN	soluble
MDKFRVQGRTRLSGEVTISGAKNAALPILFAALLAEEPVELQNVPKLKDIDTTIKLLSQLGTKIERNNGSVFVDASAVNEFCAPYDLVKTMRASIWALGPLVARFGQGQVSLPGGCAIGARPVDLHITGLEQLGAEIKLEEGYVKASVNGRLKGAHIVMDKVSVGATVTIMSAATLAEGTTVIENAAREPEIVDTANFLNTLGAKISGAGTDRITIEGVTRLGGGVYRVLPDRIETGTFLVAAAISGGKVVCRQTRPDTLDAVLAKLREAGADIEVGDDWISLDMQGKRPKAITFRTAPHPGFPTDMQAQFSLLNLVAEGTGVITETIFENRFMHVPELIRMGAHAEIESNTVICYGVEQLSGAQVMATDLRASASLVLAGCIAEGVTIVDRIYHIDRGYERIEDKLRALGAKIERVKGE	not soluble
SASMAGPDHLFNLRNHFYLGAYQAAINNSEIPNLSQEDIVERDCLVHRAYIALGSYQLVISEIDEAAATPLQAVKLLAMYLSSPENKESTISSLREWLADPTVGNNAIIRLIAGTIFMHEEDYNEALKHTHSGGTMDLHALNVQIFIKMHRSDFAEKQLRVMQQIDEDHTLTQLASAWLNLAVGGSKIQEAYLIFQDFSEKYPMTSLILNGKAVCCMHMGNFEEAETLLLEALNKDAKDPETLANLVVCSLHVGKSSSRYLNQLKLSHPEHVLVKRAASAEDNFERALQSFA	soluble
TIEARTAQSTPSAPPQKVMCVSMGSTTVRVSWVPPPADSRNGVITQYSVAYEAVDGEDRGRHVVDGISREHSSWDLVGLEKWTEYRVWVRAHTDVGPGPESSPVLVRTDEDVPSGPPRKVE	soluble
MSLEPVFQLRKELNVFASEEGGATEDISSYAATADSSGITEWNTSDKFTNEMTLTENAKYTVSQLAPNLSFLPEQATDLTGAVDYYSGNALCNDRENLYIWPFNSPQRRLACIRIPLHEEHEVLSGAPLCCFTWPSAGEESEQTKSAGVLIVHANSGLVQFYEDIHTINSVSTLISKSRVIQLDLRFRDREHATDVVNAEPSGILVATSFGRLLLLTIRDSSGKPCLKLRQQLIKSQVGFFSGAMNTFKDIVAIKPSLITGKGERLLLTITRGGELKIWNVSATMSSYKRVEVNVYQQILESLQELYPFAYGSLQILDLNPLPSDPYSLLVLSSISDGKETYYILTAIKVEESSFSIFSVYRLNTYTKANDKKPRLFIAGDLENGEQPIEPQNVPVYLLFEDAVVITQAFTQLDSNYPLRKKWEDLVSLKEDSMVLGHGNDEKALYLINGNRGVVKIEAKMEPSEDYRFVKSHIDQAVYFSEGHHHHHH	soluble
VSAEEQDTRSGGIQVIARAAELLRVLQAHPGGLSQAEIGERVGMARSTVSRILNALEDEGLVASRGARGPYRLGPEITRMATTVRLGVVTEMHPFLTELSRELDETVDLSILDGDRADVVDQVVPPQRLRAVSAVGESFPLYCCANGKALLAALPPERQARALPSRLAPLTANTITDRAALRDELNRIRVDGVAYDREEQTEGICAVGAVLRGVSVELVAVSVPVPAQRFYGREAELAGALLAWVSKVDAWFNGTEDRK	not soluble
MGSDKIHHHHHHLGNNAPRIIDFADSKGKGIIKYRYASMGAGQASSFQKKFTGKEPVEKIQHYLHVVFKEQLGKLYTAKTHEKMNLLSYYEFDNISAGKLKASIGNVYQGNIEANEFILHANSFPNPLNFYKNDLDTYLKNNNMYAFQSYVHGDLNGANIIIDAQDNVWIIDFFHTHRGHVLKDLVKLENDLLYIFSEMHSESDFQEALKISEVLFAVSDLQASLPDITQTGITKPSFVRVYKTLSYLRSLYSDLVEWDRNPLQVFIAQLRYSMHSLIFDECNQWQKEWALYNSGKFSQIISNKFLETDKLRIDFIKSDKIDAHSLALTILPGRKDYSRDLSEDLKEIKEQQIDCVVSLITKDEMDMYGVPELLDVYKKQGVECLHVPVIDQKIPVKAEIERINAFINAQQKKHKKVLIHCVGGLGRSGLVAACYLKSLGYPSDDAIKIVREARSSRAIESTEQEKFVYDYNERTV	not soluble
MKPSIFRQALCVSAAAVLTTVSHSLTTPTAHAQGGTPGLMEFRWDSDRNYRKLYYFQTSSIENDRSEWYLHLRAKDRKTSIMKLTVTVPDYFDAKLRPERMTLCRTSSGSMTKRTRCLEEVPATIEVNKTQTAIEVYPDTPVPVEGDYSLRIKLFNPQGKRMYQLNALIQAPGDVPMSGYVGSWLIDMD	not soluble
MGSDKIHHHHHHMIIIELNKRQEHIIQIVKDHGPITGESIAAQLGLTRATLRPDLAILTMAGYLEARPRVGYFYTGKTGGQLLSEAVKKIKVQDYQSRPVVIDKNVSVYDAICTMFLEDVGTLFVVDQSTLLVGVVSRKDLLRASLGKQDLTSLPVNIIMTRMPNIAMCRREDSLYDIAMELIERQIDAMPVVKDTKQGLEVVGRITKTNITRAFVNLVNNE	not soluble
GHVLLLRPVRSEDVEPLQGVFALMGPQEIRERFAPSATGSSERFQQLTNPNAKREIVLVAAEQLPPGEAMIAALARASIVPNSRHAEYIILVSSFVSGQGLGRQLLRKLVKWARGKYLDHLYGDILERNRPMLELAESLGFQRESHPESPDLVRMTLKL	not soluble
MGFYQGPDNRKITGGLKGKHRDKRKYEIGNPPTFTTLSAEDIRIKDRTLGGNFKVRLKYTTTANVLDPATNTAKKVKILEILETPANKELARRGIIIRGAKIRTEAGLAVVTSRPGQDGVINAVLLKNESQRS	soluble
MGSDKIHHHHHHMRELRYNPLTGQWIMVSAVRKNRPWRPRNFCPFCPGSEETGYGWEVLLLPNRFPMLSFDAPKPKNEDFYKKARAMGQCSVIVETPKHELRDLDELPREQMVKIVRMWIKITETLKENRNVAYLAIFRNKGEEIGVSLKHPHGQLYALPYIPLKVRLKIENSRRYYKRTGECIFCRIIKEEEKNGERTIYENDNFIVFMPFFASWPFEVHIYPKRHIQYLTDLKVNEIEDLAEVIQVTTATLNAVLDRQMPYAMMIFQAPFKGNYPFYHLHIEFYPILRDNGKVKYTAGIELGTWEFTYDGIPEENARKLKEACKKVSQRMSLKGKCI	not soluble
MVMFMVFRILGRMTKIEKEIKEEEAKYDLIIKNEAKIEPIVAEEDMEFKQGDIKPIRIKKIKIPPMSVLLICPYGRHRVGHVVAVGEEVPMPIDVEREVDMAMFACGFEGEVKKGDLIGMLLILAAEKRELEHHHHHH	not soluble
MAMQFVMRLAREFRRADWRRMLSDMSATELGEWGDYFRMQSFSDVWMDAQFASLKALIVRMVSGSSDAAVADFSLLPEENGIPERTDEELMHLGEGISGGVRYGPDSQPGHLEHHHHHH	not soluble
MGSDKIHHHHHHMLFYLPVTGQNTAVYPDQFGAYFNNMHLVTPSYFPKDVKVNLSLSYKSRTGALNKISTFNVAFTRVFNHTKPTNHLIRIYFYNEKDGPYIHRPRAYINYGYKIALSKQVNIAAGAAFGFAQTAFTAPSSTANGNSISPDASIGLSLQVKNFEAGFSVCQLLNSEVNPVVAPIIYRRYYNTYLSYHADLSPFIKLKSGMLWRALPTYDDDLNIYSMLEYKETISFGGCYRYNKNFSFVVSTNIHIGKESILLSFVYNTPFFTKLPAWTDSVELNGGYNFY	not soluble
MRLPDAGFRRYIVVAGRRNVGKSSFMNALVGQNVSIVSEYAGTTTDPVYKSMELYPVGPVTLVDTPGLDDVGELGRLRVEKARRVFYRADCGILVTDSEPTPYEDDVVNLFKEMEIPFVVVVNKIDVLGEKAEELKGLYESRYEAKVLLVSALQKKGFDDIGKTISEILPGDEEIPYLGDLIDGGDLVILVVPIDLGAPKGRLIMPQVHAIREALDREAIALVVKERELRYVMENIGMKPKLVITDSQVVMKVASDVPEDVELTTFSIVESRYRGDLAYFVESVRKIEELEDGDTVVIMEGCTHRPLTEDIGRVKIPRWLVNHTGAQLNFKVIAGKDFPDLEEIEGAKLIIHCGGCVLNRAAMMRRVRMAKRLGIPMTNYGVTISYLHGVLDRAIRPFREEVKVLEHHHHHH	soluble
NKDWSYRIGFNLYDSQSEITKYNNETNLLGDKIYRKGMKMGEIWGYVTDRFYTEDDFNADGTLKPGIPIPKGAGKVFPGDVLYKNFDDDTETIWSGEGTADNPGDQRIIGNSTPRFHYGITAGISWKGLDLSIFLRGVGKRDYWRTDQIAWPTGGWGSLFKETLNFWTPTNTNAYYPRVYSNDGVNTSYNHWKQSKYLANASYLKLQNITLSYTLPKVWSQRLYFDDVKVFFSGENLYTWDHLPEGLETDMLSKGAWEYPFMRKFSFGINVTF	not soluble
MSDIESLGEAAGLFEEPEDFLPPPPKPHFAEYQRSHITKESKSDVKDIKLRLVGTSPLWGHLLWNAGIYTANHLDSHPELIKGKTVLELGAAAALPSVICALNGAQMVVSTDYPDPDLMQNIDYNIKSNVPEDFNNVSTEGYIWGNDYSPLLAHIEKIGNNNGKFDLIILSDLVFNHTEHHKLLQTTKDLLAEKGQALVVFSPHRPKLLEKDLEFFELAKNEFHLVPQLIEMVNWKPMFDEDEETIEVRSRVYAYYLTHEK	soluble
ENAFKRRRCGVCEVCQQPECGKCKACKDMVKFGGSGRSKQACQERRCPN	soluble
